17 molecules from patent US20130337478A1 can be followed below.

Substitutions are numbered along the chain they refer to.

In test [1] the target is polyclonal human IgG. Kind of test: affinity chromatography; VHH coupled to NHS-Sepharose 4B FF, polyclonal human IgG 0.5 mg/ml in PBS pH 7.4, 150 cm/hr.
Test [2] deals with polyclonal human IgG. Briefly: affinity chromatography; VHH on Sepharose resin at about 15 mg/ml ligand density.

B1: anti IgG-CH1 VHH #88 (VHH)
VHH: QVQLQESGGGSVQAGGSLRLSCAVSGNTLSRYAMGWFRQAPGNEREFVAAIRWNNGNTYYADSVEGRFTISRYSAKNLVYLQMNSLQAEDTAIYYCAARFLPYASSNAYHEALYNYDYWGQGTQVTVSS
Molecule B1 displayed a DBC (dynamic binding capacity) in test [1] of 7.31 mg/mL.

B2: anti IgG-CH1 VHH #01 (VHH)
VHH: QVQLQESGGGLVQAGGSLRLSCAVSGNTLSRYAMGWFRQTPGNEREFVAAIRWNNGATYYADSVEGRFTISRDSGKNTVYLQMNNLQPEDTAVYYCAGRFLGYASSNAYHEALYNYDYWGQGTQVTVSS
On to B2, for which, in test [2], the DBC (dynamic binding capacity) (mg human IgG/ml resin) was 28. Besides, the DBC (dynamic binding capacity) in test [1] worked out at 8.74 mg/mL.

B3: anti IgG-CH1 VHH #46 (VHH)
VHH: B2 VHH with N43K, Q87K
Molecule B3 yielded a DBC (dynamic binding capacity) in test [1] of 11.2 mg/mL.

B4: anti IgG-CH1 VHH #84 (VHH)
VHH: B1 VHH with E6D, S11L, E65K, Y73D, L78T, A88P, I93V
Regarding B4, in test [1], the DBC (dynamic binding capacity) came out at 8.27 mg/mL.

B5: anti IgG-CH1 VHH #10 (VHH)
VHH: B2 VHH with N43K
On to B5, for which the DBC (dynamic binding capacity) in test [1] came out at 12 mg/mL.

B6: anti IgG-CH1 VHH #83 (VHH)
VHH: B1 VHH with E6D, S11L, Y73D, L78T, A88P, I93V
Take B6: the DBC (dynamic binding capacity) in test [1] came to 8.46 mg/mL.

B7: anti IgG-CH1 VHH #89 (VHH)
VHH: B2 VHH with T40A, A57N, E65K, G75A, N85S, G98S, G102P
Turning to B7, the DBC (dynamic binding capacity) in test [1] amounted to 5.61 mg/mL.

B8: anti IgG-CH1 VHH #86 (VHH)
VHH: B1 VHH with E6D, E65K, Y73D, L78T, A88P, I93V, Y95F
Molecule B8 displayed a DBC (dynamic binding capacity) in test [1] of 4.98 mg/mL.

B9: anti IgG-CH1 VHH #37 (VHH)
VHH: B2 VHH with N43K, E65K
As to B9, the DBC (dynamic binding capacity) in test [1] stood at 9.8 mg/mL.

B10: anti IgG-CH1 VHH #19 (VHH)
VHH: B2 VHH with E65K
The molecule B10 had a DBC (dynamic binding capacity) in test [1] of 9.4 mg/mL.

B11: anti IgG-CH1 VHH #85 (VHH)
VHH: B2 VHH with T40A, N85S
B11 gave a DBC (dynamic binding capacity) in test [1] of 11.9 mg/mL.

B12: anti IgG-CH1 VHH #82 (VHH)
VHH: B1 VHH with S11L, E65K, Y73D, L78T, Y80F, A88P, I93V, Y95F
In test [1], B12 gave a DBC (dynamic binding capacity) of 6.69 mg/mL.

B13: anti IgG-CH1 VHH #64 (VHH)
VHH: B2 VHH with N43K, E65K, Q87K
On to B13, for which the DBC (dynamic binding capacity) in test [1] turned out to be 10.2 mg/mL.

B14: anti IgG-CH1 VHH #73 (VHH)
VHH: B2 VHH with E65K, K76R, Q87K
B14: the DBC (dynamic binding capacity) in test [1] came out at 11.7 mg/mL.

B15: anti IgG-CH1 VHH #55 (VHH)
VHH: B2 VHH with E65K, Q87K
With B15, the DBC (dynamic binding capacity) in test [1] was found to be 11.3 mg/mL.

B16: anti IgG-CH1 VHH #28 (VHH)
VHH: B2 VHH with Q87K
B16 yielded a DBC (dynamic binding capacity) in test [1] of 12.5 mg/mL.

B17: anti IgG-CH1 VHH #87 (VHH)
VHH: QVQLQESGGGLVQAGASLRLSCEVSGNTLSQYAMGWFRQVPGHKREFVAAIRWTNGNTYYADSVEGRFTISRDSAKKTVYLQMNSLQPDDTAIYYCAARFLPYASSNAYHESLYNYDYWGQGTQVTVSS
Take B17: the DBC (dynamic binding capacity) in test [1] worked out at 5.64 mg/mL.
